The target of the data set is T1, hWalker human Dicer (K70A) (Homo sapiens, UniProt Q9UPY3 SEQ:1-1922).
T1 chain: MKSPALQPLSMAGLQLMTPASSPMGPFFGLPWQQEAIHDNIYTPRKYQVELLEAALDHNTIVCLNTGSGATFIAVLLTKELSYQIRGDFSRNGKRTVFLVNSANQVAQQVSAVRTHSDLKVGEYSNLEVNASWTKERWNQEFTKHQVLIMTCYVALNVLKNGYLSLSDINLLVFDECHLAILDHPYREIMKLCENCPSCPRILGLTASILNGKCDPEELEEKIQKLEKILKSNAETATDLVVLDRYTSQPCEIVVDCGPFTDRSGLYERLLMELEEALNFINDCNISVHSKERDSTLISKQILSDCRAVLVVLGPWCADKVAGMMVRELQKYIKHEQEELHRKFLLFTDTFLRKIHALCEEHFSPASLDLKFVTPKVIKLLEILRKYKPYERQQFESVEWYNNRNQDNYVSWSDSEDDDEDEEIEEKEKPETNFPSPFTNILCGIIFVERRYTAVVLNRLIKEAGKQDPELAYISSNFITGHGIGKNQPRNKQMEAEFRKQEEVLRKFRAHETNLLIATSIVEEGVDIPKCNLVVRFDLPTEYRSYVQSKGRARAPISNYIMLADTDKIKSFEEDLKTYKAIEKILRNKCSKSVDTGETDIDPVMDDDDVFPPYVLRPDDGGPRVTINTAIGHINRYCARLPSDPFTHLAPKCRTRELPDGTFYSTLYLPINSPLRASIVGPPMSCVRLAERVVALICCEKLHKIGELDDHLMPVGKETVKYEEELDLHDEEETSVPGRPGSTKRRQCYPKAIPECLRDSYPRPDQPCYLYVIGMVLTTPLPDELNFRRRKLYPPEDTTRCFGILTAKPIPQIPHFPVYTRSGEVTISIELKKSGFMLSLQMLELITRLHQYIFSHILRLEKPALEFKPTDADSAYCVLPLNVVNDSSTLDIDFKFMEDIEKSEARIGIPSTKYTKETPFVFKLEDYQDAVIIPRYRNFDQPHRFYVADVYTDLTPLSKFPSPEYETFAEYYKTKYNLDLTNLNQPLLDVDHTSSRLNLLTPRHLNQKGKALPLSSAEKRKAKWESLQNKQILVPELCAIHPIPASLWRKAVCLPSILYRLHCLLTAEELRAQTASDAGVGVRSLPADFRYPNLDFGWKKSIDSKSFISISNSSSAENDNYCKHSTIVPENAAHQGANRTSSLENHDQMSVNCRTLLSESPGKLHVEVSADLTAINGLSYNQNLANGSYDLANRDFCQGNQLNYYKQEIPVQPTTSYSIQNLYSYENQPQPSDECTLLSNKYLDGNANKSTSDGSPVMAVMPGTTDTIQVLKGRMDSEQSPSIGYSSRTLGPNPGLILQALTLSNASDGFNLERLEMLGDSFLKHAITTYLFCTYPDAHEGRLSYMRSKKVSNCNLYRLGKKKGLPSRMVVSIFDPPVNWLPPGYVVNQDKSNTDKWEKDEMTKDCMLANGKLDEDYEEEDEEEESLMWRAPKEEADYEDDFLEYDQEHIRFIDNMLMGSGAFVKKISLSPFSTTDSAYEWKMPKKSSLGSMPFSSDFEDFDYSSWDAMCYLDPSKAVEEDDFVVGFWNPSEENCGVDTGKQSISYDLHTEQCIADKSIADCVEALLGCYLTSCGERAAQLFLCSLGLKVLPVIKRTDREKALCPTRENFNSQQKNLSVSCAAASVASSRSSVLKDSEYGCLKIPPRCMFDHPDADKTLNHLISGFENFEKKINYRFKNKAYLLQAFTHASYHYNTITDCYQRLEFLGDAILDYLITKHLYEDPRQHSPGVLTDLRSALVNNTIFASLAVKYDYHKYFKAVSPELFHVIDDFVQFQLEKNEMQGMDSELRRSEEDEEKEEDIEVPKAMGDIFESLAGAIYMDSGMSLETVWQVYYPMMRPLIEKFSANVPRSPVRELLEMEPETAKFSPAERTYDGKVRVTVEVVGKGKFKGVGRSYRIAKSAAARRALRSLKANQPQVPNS
The data set is described as follows: filter; within three-fold of full-length; 5 mM EDTA; exact Kd only in figure. To be noted: tags: N-terminal His6 removed by site-specific protease, baculovirus/Sf9. The method, then: After dried, the bound (on Protran) or free (on Nytran) RNAs were detected and quantified with Phosphoimager (GE Healthcare). Percentage of bound RNAs was calculated by 100 multiplied by the ratio of radioactivity (volumes) detected on the Protran membrane over the total input volumes (radioactivity). The bound RNAs (%) (Y-axle) were plotted against protein concentrations (X-axle). K_d was determined by global fitting to the equation of kobsd = (kmax ×[Dicer])(K_{1/2} + [Dicer])^-1, here $kobsd$ is the observed rate constant at a particular protein concentration, $kmax$ is the maximal rate constant with saturating protein, and K_{1/2} (or K_d) is the protein concentration that provides half the maximal rate. Curve fitting was conducted with KleidaGraph (Synery Software).
RNA. […] These values are similar to those measured previously (Provost et al, 2002; Vermeulen et al, 2005). […] The protein lacking both the DExD/H-box domain and the dsRBD (2DD) bound ~3-4 fold more weakly to either substrate relative to full-length Dicer (FIG. 3A-C). It is possible that this severely truncated protein is generally destabilized, or that the DExD/H-box domain plays a small but measurable role in substrate binding.

The results in this text go back to US8440430, “Modified dicer polypeptide and methods of use thereof” (The Regents of the University of California).

B1: 37ab duplex RNA (dsRNA)
RNA 1: UGAGGUAGUAGGUUGUAUAGUUUGAAAGUUCACGAUU
RNA 2: UCGUGAACUUUCAAACUAUACAACCUACUACCUCAUU
As for B1, the “Kd relative to full-length Dicer (fold)” value (label: 5'-32P on one strand, perfect duplex with 2-nt 3' overhangs on both ends) was ≤ 3 fold of full-length Kd (75 nM).

B2: pre-hlet-7 hairpin RNA (ssRNA)
RNA: UGAGGUAGUAGGUUGUAUAGUUUUAGGGUCACACCCACCACUGGGAGAUAACUAUACAAUCUACUGUCUUACC
B2: the “Kd relative to full-length Dicer (fold)” value (label: 5'-32P, hairpin) was ≤ 3 fold of full-length Kd (30 nM).
